In publication PMC5506376:

Tested on: CC(=O)N[C@H]1[C@@H](OP(=O)(O)OP(=O)(O)OC[C@H]2O[C@@H](n3ccc(=O)[nH]c3=O)[C@H](O)[C@@H]2O)O[C@H](C)[C@@H](NC(C)=O)[C@@H]1O
Test: purified protein
Settings: Mg2+

## PglC (Campylobacter jejuni subsp. jejuni NCTC 11168 = ATCC 700819)
  Km: 7.2 ± 1.1 µM
